Reference: PMC2757915, “The Elongator Complex Interacts with PCNA and Modulates Transcriptional Silencing and Sensitivity to DNA Damage Agents” (PLoS Genetics, 2009)

Target: T1, Elongator complex purified from yeast cells using Elp5-TAP (S. cerevisiae (endogenous in W303 yeast …, UniProt Q06706 1-1349; P42935 1-788; Q02908 1-557; Q02884 1-456; P38874 1-309; Q04868 …)
T1 construct: Elp1, S. cerevisiae; Elp2, S. cerevisiae; Elp3 (Kat9), S. cerevisiae; Elp4, S. cerevisiae; Elp5, S. cerevisiae; Elp6, S. cerevisiae; Six-subunit complex; also called Elp3 complex; Elp1-Elp6 complex; copies: + + + + +
Assay: co-IP; in vitro: 2.5 µg recombinant PCNA incubated with different amounts of Elp3 complex (purified with Elp5-TAP) in TBS with 0.01% NP-40 at 4°C for 2 hrs; precipitated with polyclonal anti-PCNA antibodies and Protein G Sepharose; Western blot for PCNA and CBP; pre-bleed sera as negative control
Conditions: both partners purified

binding result: binds
B1: recombinant PCNA (natural protein, S. cerevisiae, UniProt P15873 1-258, looked up)
chain: MLEAKFEEASLFKRIIDGFKDCVQLVNFQCKEDGIIAQAVDDSRVLLVSLEIGVEAFQEYRCDHPVTLGMDLTSLSKILRCGNNTDTLTLIADNTPDSIILLFEDTKKDRIAEYSLKLMDIDADFLKIEELQYDSTLSLPSSEFSKIVRDLSQLSDSINIMITKETIKFVADGDIGSGSVIIKPFVDMEHPETSIKLEMDQPVDLTFGAKYLLDIIKGSSLSDRVGIRLSSEAPALFQFDLKSGFLQFFLAPKFNDEE
notes: PCNA, encoded by POL30, S. cerevisiae; expressed from a plasmid in E. coli; No tag is named; purified by conventional chromatography; source: E. coli BL21(DE3), purified (Q-Sepharose, hydroxyapatite, Superdex 200)
